First the molecules themselves.
B1: Azoarcus group I ribozyme (parent)
chain: GUGCCUUGCGCCGGGAAACCACGCAAGGGAUGGUGUCAAAUUCGGCGAAACCUAAGCGCCCGCCCGGGCGUAUGGCAACGCCGAGCCAAGCUUCGGCGCCUGCGCCGAUGAAGGUGUAGAGACUAGACGGCACCCACCUAAGGCAAACGCUAUGGUGAAGGCAUAGUCCAGGGAGUGGCGAAAGUCACACAAACCGG

In the data set the parent is B1. The data set can be described thus: reverse-splicing fitness (ratio to wild type); higher = more active; in vitro selection; Mg2+ level not given. The procedure, abridged:
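An in vitro group I ribozyme library with randomized positions was T7-transcribed and gel-purified. In triplicate, 10 pmol RNA in EPPS pH 7.5 was reacted with 50 pmoles of a 30-nt RNA substrate for 1 h at 37 °C across several added MgCl2 levels (1–48 mM), then stopped with EDTA. Products were reverse transcribed from a substrate-complementary primer, PCR-amplified and sequenced (HiSeq 4000). Fitness is a variant's read proportion after selection over that before, normalised to wild type.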
Regarding A111C A145C C150U C169A U176C, the reverse-splicing fitness was determined as 0.00847.

Regarding C82U A111U A120U A145C C150G U176A, the reverse-splicing fitness came out at 0.00287.

Take C82G A111C A120U A145C C150U C169G U176A: the reverse-splicing fitness came out at 0.00257.

As to A111U A145U C150A, the reverse-splicing fitness worked out at 0.379.

With C82A A111U A145C C150G C169U U176G, the reverse-splicing fitness stood at 0.00633.

C82A A120G C150G C169U U176C: the reverse-splicing fitness is 0.0133.

For the variant C82U A111G A145U C150A U176G, the reverse-splicing fitness came to 0.0097.

Turning to C82G A111C A120C A145G C169G U176G, the reverse-splicing fitness amounted to 0.00618.

On to C82U A120G C150G U176G, for which the reverse-splicing fitness amounted to 0.00278.

A111G A120G C150G C169G U176C: the reverse-splicing fitness came to 0.00503.

With C82A A111U C150U C169A U176A, the reverse-splicing fitness amounted to 0.0158.

As for A120U A145G C169U U176A, the reverse-splicing fitness came to 0.0927.

C82U A111U A120G A145C C150U U176C: the reverse-splicing fitness came out at 0.00906.

As to C82G A111U A120C A145C C150A C169U, the reverse-splicing fitness was determined as 0.01.

On to C82A A111G A120U A145G C150U C169G U176G, for which the reverse-splicing fitness amounted to 0.00249.

As for A120G A145G U176G, the reverse-splicing fitness turned out to be 0.0157.

C82U A120G A145C C150G C169G U176G: the reverse-splicing fitness amounted to 0.00336.

Take C82G A111C A120U C150A C169U: the reverse-splicing fitness stood at 0.00505.

With C82A A111C A120G A145U C150U C169A U176A, the reverse-splicing fitness turned out to be 0.0123.

For the variant C82U A120G A145C C150G U176A, the reverse-splicing fitness worked out at 0.00438.

For the variant C82U A111C A145U C169A U176G, the reverse-splicing fitness is 0.00703.

Consider C82A A111G A120U A145U C150U C169A U176G, for which the reverse-splicing fitness was 0.00171.

For C82A A111U A120U A145C U176C, the reverse-splicing fitness is 0.00758.

A111C A120U A145C C150A C169U U176G: the reverse-splicing fitness was 0.00242.

Take C82G A111U A120C A145U C150A C169G: the reverse-splicing fitness worked out at 0.00901.

As for C82G A111C A120G A145C C150U U176G, the reverse-splicing fitness is 0.00478.

Turning to C82G A120C A145C C150G U176A, the reverse-splicing fitness was 0.00907.

For the variant C82G A120C A145C C169G U176A, the reverse-splicing fitness is 0.0262.

As for C82U A111C A120G A145G C150G C169U U176C, the reverse-splicing fitness was determined as 0.0104.

With C82G A111G A120U A145C C150G U176C, the reverse-splicing fitness came out at 0.00396.

In the case of C82U A120G C150A, the reverse-splicing fitness came to 0.00924.

In the case of C82U A120C A145C C150G C169U U176A, the reverse-splicing fitness is 0.00992.

Take C150U C169G: the reverse-splicing fitness was 0.172.

As for C82U A120C A145G C150A C169U U176G, the reverse-splicing fitness is 0.0043.

For C82G A111C A120C A145C C169U U176G, the reverse-splicing fitness amounted to 0.00508.

Take C82U A111U A145U C169A U176C: the reverse-splicing fitness stood at 0.00904.

Take C82U A111U A120C A145G U176C: the reverse-splicing fitness came to 0.0219.

For the variant C82U A111U A120C A145G C150U C169G U176C, the reverse-splicing fitness is 0.016.

With C82U A111G A145G, the reverse-splicing fitness came to 0.433.

C82U A111C A120G U176A: the reverse-splicing fitness was 0.0155.

On to C82G A111U A120C A145C U176G, for which the reverse-splicing fitness turned out to be 0.00674.

Consider C82A A120G A145U C150U C169A, for which the reverse-splicing fitness stood at 0.013.

As for A111C A120G A145U C169A U176A, the reverse-splicing fitness is 0.0166.

C82A A111G A120C A145G: the reverse-splicing fitness came to 0.0444.

Turning to A120U A145U C150A C169A U176A, the reverse-splicing fitness is 0.0027.

Consider C82G A111U A120G A145C C150U C169U U176A, for which the reverse-splicing fitness was 0.019.

Turning to A111G A120U A145U C169U U176C, the reverse-splicing fitness came out at 0.032.

Turning to A111C A120G C150A C169U, the reverse-splicing fitness is 0.0203.

Regarding C82U A111U A145U C150U C169G U176A, the reverse-splicing fitness is 0.0107.

On to C82G A111U A120U A145U C169G U176A, for which the reverse-splicing fitness came out at 0.00265.

With A111G A145G C150G C169G U176A, the reverse-splicing fitness stood at 0.00939.

Consider C82G A120G A145U C150A U176A, for which the reverse-splicing fitness was found to be 0.0105.

In the case of A120G C150A C169G U176A, the reverse-splicing fitness came out at 0.0606.

Regarding C82A A111G A120U C150G C169G U176A, the reverse-splicing fitness amounted to 0.00567.

As to C82U A111G A120G A145C C150A C169A U176G, the reverse-splicing fitness came out at 0.00425.

In the case of A111C A145U C150U C169A U176A, the reverse-splicing fitness was found to be 0.0122.

As for C82A A145C C150U U176C, the reverse-splicing fitness came to 0.113.

For C82U A111C A120C A145U U176C, the reverse-splicing fitness amounted to 0.0181.

With C82A A111U C150A U176G, the reverse-splicing fitness was determined as 0.00995.

Consider C82G A145G C150G C169A U176C, for which the reverse-splicing fitness amounted to 0.0144.

Consider C82A A111U A145C C150G U176G, for which the reverse-splicing fitness was determined as 0.00428.

Consider C82G A111U A120U A145C C150G C169U U176G, for which the reverse-splicing fitness came to 0.00252.

For the variant C82A A111G U176C, the reverse-splicing fitness was found to be 0.262.

Consider C169A U176C, for which the reverse-splicing fitness amounted to 0.0638.

Turning to A111C A120G A145C C150A C169G U176G, the reverse-splicing fitness was 0.00527.

In the case of A120G C169U U176A, the reverse-splicing fitness was 0.179.

For C82A A111C A120U A145G C150U C169U, the reverse-splicing fitness worked out at 0.00603.

With A111U C150G C169G U176G, the reverse-splicing fitness came to 0.00515.

For C82A A120C A145U C169G, the reverse-splicing fitness amounted to 0.00932.

Regarding C82A A120G A145C C150A, the reverse-splicing fitness is 0.00678.

Consider C82U A111C C169U U176C, for which the reverse-splicing fitness is 0.0146.

For the variant A145U C150G C169A, the reverse-splicing fitness came to 0.0224.

Regarding C82A A120G A145G C150U C169U U176G, the reverse-splicing fitness came out at 0.00463.

Consider C82A A111G A120U A145C C150G, for which the reverse-splicing fitness turned out to be 0.00637.

Consider A111C A120U A145C C169A U176A, for which the reverse-splicing fitness stood at 0.00217.

C82G A120C C150A C169A U176G: the reverse-splicing fitness was found to be 0.00601.

Consider C82U A145U C150G C169A U176G, for which the reverse-splicing fitness was determined as 0.00523.

With C82G A111C A120G A145U C150U C169A U176A, the reverse-splicing fitness is 0.0109.

In the case of C82U A111C A120C U176C, the reverse-splicing fitness is 0.0215.

For the variant C82U A111U A120U A145G C150U, the reverse-splicing fitness amounted to 0.022.

As to C82G A120U A145G C150G C169G, the reverse-splicing fitness is 0.0074.

On to C82A A111C A145C C169A U176A, for which the reverse-splicing fitness was found to be 0.0135.

For C82U A145U C150A C169G U176G, the reverse-splicing fitness turned out to be 0.0051.

(Values after the RNAGym collection of RNA variant scans (doi:10.1093/molbev/msab373).)
